Results on one protein are retold here after PMC2706497.

Broadly, the Km is the substrate concentration at which the rate is half of its maximum.

Substrate in this data set: NCCCCc1ccccc1
The experiment in a line: steady-state kinetics. Type of data set: biochemical, Homo sapiens. The note with it: FAD (covalent).

B1: MAO-B (Homo sapiens) (protein)
chain: SNKCDVVVVGGGISGMAAAKLLHDSGLNVVVLEARDRVGGRTYTLRNQKVKYVDLGGSYVGPTQNRILRLAKELGLETYKVNEVERLIHHVKGKSYPFRGPFPPVWNPITYLDHNNFWRTMDDMGREIPSDAPWKAPLAEEWDNMTMKELLDKLCWTESAKQLATLFVNLCVTAETHEVSALWFLWYVKQCGGTTRIISTTNGGQERKFVGGSGQVSERIMDLLGDRVKLERPVIYIDQTRENVLVETLNHEMYEAKYVISAIPPTLGMKIHFNPPLPMMRNQMITRVPLGSVIKCIVYYKEPFWRKKDYCGTMIIDGEEAPVAYTLDDTKPEGNYAAIMGFILAHKARKLARLTKEERLKKLCELYAKVLGSLEALEPVHYEEKNWCEEQYSGGCYTTYFPPGILTQYGRVLRQPVDRIYFAGTETATHWSGYMEGAVEAGERAAREILHAMGKIPEDEIWQSEPESVDVPAQPITTTFLERHLPSVPGLLRLIGLTTIFSATALGFLAHKRGLLVRV
Turning to B1, the Michaelis constant (Km) is 19 ± 3 µM.
